Legend:
[1] = molecular target: SARS-CoV-2 spike ectodomain with the wild-type sequence (S-WT), aa 15-1,213, with C-terminal thrombi (SARS-CoV-2 | bacteriophage T4) (UniProt P0DTC2); experiment: AUC
[2] = molecular target: SARS-CoV-2 spike ectodomain, prefusion trimer-stabilized form (S-2P), aa 15-1,213, with C-terminal t (SARS-CoV-2 | bacteriophage T4) (UniProt P0DTC2); experiment: cryo-EM structure

Row | Substance | stoichiometry N [1] | stoichiometry N [2]
1 | SARS-CoV-2 spike ectodomain with the wild-type sequence (S-WT), aa 15-1,213, with C-terminal thrombi (from UniProt P0DTC2 15-1213) (domain or fragment) | 3 | 
2 | SARS-CoV-2 spike ectodomain, prefusion trimer-stabilized form (S-2P), aa 15-1,213, with C-terminal t (from UniProt P0DTC2 15-1213) (domain or fragment) |  | 3

— PMC7534368
